Results from the RNAGym collection of RNA variant scans (doi:10.1093/molbev/msab373).

B1: Azoarcus group I ribozyme (parent)
chain: GUGCCUUGCGCCGGGAAACCACGCAAGGGAUGGUGUCAAAUUCGGCGAAACCUAAGCGCCCGCCCGGGCGUAUGGCAACGCCGAGCCAAGCUUCGGCGCCUGCGCCGAUGAAGGUGUAGAGACUAGACGGCACCCACCUAAGGCAAACGCUAUGGUGAAGGCAUAGUCCAGGGAGUGGCGAAAGUCACACAAACCGG

Variants of: B1
Assay: reverse-splicing fitness (ratio to wild type); higher = more active; in vitro selection; Mg2+ level not given
Summary of the method: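 An in vitro group I ribozyme library with randomized positions was T7-transcribed and gel-purified. In triplicate, 10 pmol RNA in EPPS pH 7.5 was reacted with 50 pmoles of a 30-nt RNA substrate for 1 h at 37 °C across several added MgCl2 levels (1–48 mM), then stopped with EDTA. Products were reverse transcribed from a substrate-complementary primer, PCR-amplified and sequenced (HiSeq 4000). Fitness is a variant's read proportion after selection over that before, normalised to wild type.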

Variant	reverse-splicing fitness
A111G A120U A145U C150U C169A U176G	0.00175
A111G A120U A145U C150U C169A U176C	0.0026
A111G A120U A145U C150U C169A U176A	0.00375
A111G A120U C150U C169U U176A	0.016
A111G A120U C150U C169U U176C	0.02
A111G A120U C150U C169U U176G	0.0032
A111G A145C C150G C169A U176G	0.00652
A111G A145C C150G C169A U176A	0.0077
A111G A145C C150G C169A U176C	0.00646
A111G A145G C150G C169A U176A	0.0122
A111G A145G C150G C169A U176C	0.0135
A111G A145G C150G C169A U176G	0.00761
A111G A120U A145G C169A U176G	0.0013
A111G A120U A145G C169A U176C	0.00372
A111G A120U A145G C169A U176A	0.00347
A111G A120U C150G C169U U176A	0.00346
A111G A120U C150G C169U U176G	0.00256
A111G A120U C150G C169U U176C	0.00437
A111G A120U U176G	0.164
A111G A120U U176A	0.432
A111G A120U U176C	0.445

Variant	reverse-splicing fitness
A111G A120U A145G C150U U176A	0.237
A111G A120U A145G C150U U176G	0.0427
A111G A120U A145G C150U U176C	0.285
A111G A120U A145U C169A U176G	0.00131
A111G A120U A145U C169A U176A	0.00236
A111G A120U A145U C169A U176C	0.00348
A111G A145C C150U U176G	0.23
A111G A145C C150U U176A	0.456
A111G A145C C150U U176C	0.491
A111G A145G C150G	0.364
A111G A145G C150U	0.941
A111G A145G C150A	0.517
A111G A120U A145C C169G U176C	0.00699
A111G A120U A145C C169G U176G	0.00205
A111G A120U A145C C169G U176A	0.00876
A111G A120U C150U	0.538
A111G A120U C150G	0.0688
A111G A120U C150A	0.112
A111G A145C C169U	0.188
A111G A145C C169G	0.116
A111G A145C C169A	0.0493

Variant	reverse-splicing fitness
A111G A145G C150U C169A	0.0452
A111G A145G C150U C169U	0.168
A111G A145G C150U C169G	0.101
A111G A145C U176C	0.78
A111G A145C U176A	0.718
A111G A145C U176G	0.448
A111G A145G C150U C169G U176G	0.00595
A111G A145G C150U C169G U176C	0.0431
A111G A145G C150U C169G U176A	0.0289
A111G A120U A145G C150U C169A U176C	0.00357
A111G A120U A145G C150U C169A U176A	0.00469
A111G A120U A145G C150U C169A U176G	0.00246
A111G A145C C150U C169G	0.0327
A111G A145C C150U C169U	0.0495
A111G A145C C150U C169A	0.0167
A111G A120U A145G C150A C169G U176C	0.00584
A111G A120U A145G C150A C169G U176G	0.00256
A111G A120U A145G C150A C169G U176A	0.0104
A111G A120U A145C U176C	0.214
A111G A120U A145C U176G	0.131
A111G A120U A145C U176A	0.332

Variant	reverse-splicing fitness
A111G A120U A145U C169U U176A	0.0203
A111G A120U A145U C169U U176G	0.00399
A111G A120U A145U C169U U176C	0.032
A111G A120U A145U C150U C169U U176C	0.0168
A111G A120U A145U C150U C169U U176A	0.0131
A111G A120U A145U C150U C169U U176G	0.00321
A111G A145G C150U C169U U176G	0.00616
A111G A145G C150U C169U U176A	0.0415
A111G A145G C150U C169U U176C	0.0611
A111G A145G C169A	0.053
A111G A120U A145U C150U C169G U176G	0.00232
A111G A120U A145U C150U C169G U176A	0.00842
A111G A120U A145U C150U C169G U176C	0.009
A111G A145G C150G C169G U176C	0.00813
A111G A145G C150G C169G U176G	0.00506
A111G A145G C150G C169G U176A	0.00939
A111G A120U A145C C169U	0.12
A111G A120U A145C C169A	0.00532
A111G A120U A145C C169G	0.0842
A111G A145C C169A U176C	0.0139
